What was measured:
Arc1p dN [1] = biological target: T1, Arc1p dN (Saccharomyces cerevisiae, UniProt P46672 132-376, del1-131); assay: competition FP; FP: 25 mM Tris-HCl pH 7.5, 2 mM MgCl2, 50 mM NaCl (Trbp111) or 150 mM NaCl (Arc1p), room temperature; ITC: 25 mM Tris-HCl pH 7.4, 150 mM NaCl, 2 mM MgCl2, 25 C; conditions: protein: recombinant; tags: His-MBP removed; hairpin
T1 sequence: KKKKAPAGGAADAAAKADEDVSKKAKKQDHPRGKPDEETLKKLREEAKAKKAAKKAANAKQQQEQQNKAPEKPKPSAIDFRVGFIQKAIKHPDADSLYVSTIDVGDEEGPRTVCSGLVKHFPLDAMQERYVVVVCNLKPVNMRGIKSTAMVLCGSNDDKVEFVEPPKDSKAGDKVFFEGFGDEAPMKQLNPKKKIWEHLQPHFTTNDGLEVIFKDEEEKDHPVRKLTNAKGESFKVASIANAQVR

Trbp111 [2] = biological target: T2, Trbp111 (Aquifex aeolicus, UniProt O66738 1-111); assay: competition FP; vs fluorescein-tRNATyr; FP: 25 mM Tris-HCl pH 7.5, 2 mM MgCl2, 50 mM NaCl (Trbp111) or 150 mM NaCl (Arc1p), room temperature; ITC: 25 mM Tris-HCl pH 7.4, 150 mM NaCl, 2 mM MgCl2, 25 C; conditions: protein: recombinant; tags: His-MBP removed (PreScission); chain copies: 2; hairpin
Trbp111 [3] = biological target: T2, Trbp111; assay: competition fluorescence polarization; ITC (Arc1p): 25 mM Tris-HCl pH 7.4, 150 mM NaCl, 2 mM MgCl2, 25 °C. FP and competition FP: 25 mM Tris-HCl pH 7.5, 150 mM NaCl (Arc1p) or 50 mM NaCl (Trbp111), 2 mM MgCl2, room temperature; conditions: protein: recombinant; tags: His-MBP removed (PreScission); chain copies: 2; hairpin
Arc1p dN [4] = biological target: T1, Arc1p dN; assay: as above; conditions: protein: recombinant; tags: His-MBP removed; hairpin
Arc1p dN [5] = biological target: T1, Arc1p dN; assay: 2AP fluorescence lifetime; 20 uM protein: 4.76 to 6.2 ns; FP: 25 mM Tris-HCl pH 7.5, 2 mM MgCl2, 50 mM NaCl (Trbp111) or 150 mM NaCl (Arc1p), room temperature; ITC: 25 mM Tris-HCl pH 7.4, 150 mM NaCl, 2 mM MgCl2, 25 C; conditions: protein: recombinant; tags: His-MBP removed; label: 2AP; hairpin
Trbp111 [6] = biological target: T2, Trbp111; assay: 2AP fluorescence lifetime; 60 uM protein: 4.73 to 5.76 ns; FP: 25 mM Tris-HCl pH 7.5, 2 mM MgCl2, 50 mM NaCl (Trbp111) or 150 mM NaCl (Arc1p), room temperature; ITC: 25 mM Tris-HCl pH 7.4, 150 mM NaCl, 2 mM MgCl2, 25 C; conditions: protein: recombinant; tags: His-MBP removed (PreScission); chain copies: 2; label: 2AP; hairpin
Arc1p dN [7] = biological target: T1, Arc1p dN; assay: 2AP fluorescence lifetime; 20 uM protein: 5.46 to 6.26 ns; FP: 25 mM Tris-HCl pH 7.5, 2 mM MgCl2, 50 mM NaCl (Trbp111) or 150 mM NaCl (Arc1p), room temperature; ITC: 25 mM Tris-HCl pH 7.4, 150 mM NaCl, 2 mM MgCl2, 25 C; conditions: protein: recombinant; tags: His-MBP removed; label: 2AP; hairpin
Arc1p dN [8] = biological target: T1, Arc1p dN; assay: competition FP; FP: 25 mM Tris-HCl pH 7.5, 2 mM MgCl2, 50 mM NaCl (Trbp111) or 150 mM NaCl (Arc1p), room temperature; ITC: 25 mM Tris-HCl pH 7.4, 150 mM NaCl, 2 mM MgCl2, 25 C; conditions: protein: recombinant; tags: His-MBP removed; hairpin; remark: listed apart in the source
Trbp111 [9] = biological target: T2, Trbp111; assay: as above; conditions: protein: recombinant; tags: His-MBP removed (PreScission); chain copies: 2; hairpin

T2 sequence (O66738 entry or part of it): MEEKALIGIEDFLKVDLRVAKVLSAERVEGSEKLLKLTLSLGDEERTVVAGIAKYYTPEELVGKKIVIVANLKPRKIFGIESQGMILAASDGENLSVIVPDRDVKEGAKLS

Binder: AGGCUUUUCAAGUAGGCCUACCA (structured_RNA) [MicroH]
- binding signal (Arc1p dN [1]): ~10 fold weaker than tRNA
- IC50 (Trbp111 [2]): 7.2 ± 1 µM
- IC50 (Trbp111 [3]): 7.32 ± 0.991 µM
- IC50 (Arc1p dN [4]): 4.66 ± 0.769 µM

Binder: AGGCUUGGGUGGUUCAAGUCCACUCAGGCCUACCA (structured_RNA) [MiniH]
- binding signal (Arc1p dN [1]): ~10 fold weaker than tRNA
- IC50 (Trbp111 [2]): 6.5 ± 1 µM
- IC50 (Trbp111 [3]): 5.96 ± 1.02 µM
- IC50 (Arc1p dN [4]): 3.69 ± 0.931 µM

Binder: AGGCUUGGGUGGUUCAAGUCCACUCAGGCCUACAA (structured_RNA, 2-aminopurine at position 75) [MiniH-AC-2AP-A]
- binding result (Arc1p dN [5]): binds
- binding result (Trbp111 [6]): binds

Binder: AGGCUUGGGUGGUUCAAGUCCACUCAGGCCUACCA (structured_RNA, 2-aminopurine at position 76) [MiniH-ACC-2AP]
- binding result (Arc1p dN [7]): binds

Binder: AGGCUUGGGUGGUUCAAGUCCACUCAGGCCUACCG (structured_RNA) [MiniH-ACCG]
- binding signal (Arc1p dN [8]): ~2 fold weaker than MiniH
- IC50 (Arc1p dN [4]): 7.58 ± 2.9 µM

Binder: AGGCUUGGGUGGUUCAAGUCCACUCAGGCCUACCC (structured_RNA) [MiniH-ACCC]
- binding signal (Arc1p dN [8]): ~3 fold weaker than MiniH
- IC50 (Arc1p dN [4]): 13.2 ± 4.95 µM

Binder: AGGCUUGGGUGGUUCAAGUCCACUCAGGCCUACCU (structured_RNA) [MiniH-ACCU]
- binding signal (Arc1p dN [8]): ~3 fold weaker than MiniH
- IC50 (Arc1p dN [4]): 11.8 ± 2.67 µM

Binder: AGGCUUGGGUGGUUCAAGUCCACUCAGGCCUCA (structured_RNA) [MiniH dA73/dC74]
- binding signal (Trbp111 [9]): ~3 fold higher affinity than MiniH
- IC50 (Trbp111 [3]): 2.17 ± 0.151 µM
- IC50 (Arc1p dN [4]): 2.78 ± 0.339 µM

— PMC11286949, “Structural basis of tRNA recognition by the widespread OB fold”
